The results in this text go back to patent US12077763B2, “RNA-based control of powdery mildew” (Greenlight Biosciences, Inc., priority 2021, dated 2024).

B1: GS3356 (nucleic acid)
sense: CUGGGUGAGUUUUUCGUAACGUCGCUACUUUAUUAACUUGAUCUGCCGUGGAUUUUGGUUGUCUUGUAUCAAUCAAAAGGAGAGGAAGCUUCGGAAACUUCAUUAAAGAUCUUAUGAUUGGCUCCUUUGAAUAGUCGGGCCUCUGAAAUAUAACAGCUUUUCCUUGGGAGGCAACAGUGUUAUCUACUCCUGAAGGGUUUCCAUGGAUACAUAUUUCUCCUACAUAAGCCCACAUAUUAAUGCGGCUUAUUUGGGUAUGUGCUUCUUCAAUGGGUUGGUCCUCAUGAGGCCCAGAAAGCGCUCUUACCUGUAAUAAGAGCGCAGCAGCUAGACACACAGUAAUAGAUGCA
antisense: UGCAUCUAUUACUGUGUGUCUAGCUGCUGCGCUCUUAUUACAGGUAAGAGCGCUUUCUGGGCCUCAUGAGGACCAACCCAUUGAAGAAGCACAUACCCAAAUAAGCCGCAUUAAUAUGUGGGCUUAUGUAGGAGAAAUAUGUAUCCAUGGAAACCCUUCAGGAGUAGAUAACACUGUUGCCUCCCAAGGAAAAGCUGUUAUAUUUCAGAGGCCCGACUAUUCAAAGGAGCCAAUCAUAAGAUCUUUAAUGAAGUUUCCGAAGCUUCCUCUCCUUUUGAUUGAUACAAGACAACCAAAAUCCACGGCAGAUCAAGUUAAUAAAGUAGCGACGUUACGAAAAACUCACCCAG
B2: GS3351 (nucleic acid)
sense: AAGAAACAGACAGAUGAUUUUAUCAUAUUUCAAGGUAUAUUUGAAUUUAGUGAAUCUAGUUUAAUAUAAUUUAAAUUUAUUCGAUUAUCACCAACCUAUGAAAAAAUCAUUUCAUCCCAAUUCCGACAUGAAUUUGUAGUGUCUGACAGGUUUGUUUAAAAACGAAGUGGUGUAAAGAACCAUCGAUUCUUUCCACUUAAAUAUCUCUCCUCUAAGGCUUUCUUAACCACUUUCUUGGCAUCCUCUCGCUGCGAUACUUCCUUGAAUGUUUCUGUAGAUAUUACGUUUUUAAGACCUUCUAAUUCGAGUGUGUAACGUGUUGGCAUAAUAUGAUUAUAAUUGAUAACUUUUAUAAAA
antisense: UUUUAUAAAAGUUAUCAAUUAUAAUCAUAUUAUGCCAACACGUUACACACUCGAAUUAGAAGGUCUUAAAAACGUAAUAUCUACAGAAACAUUCAAGGAAGUAUCGCAGCGAGAGGAUGCCAAGAAAGUGGUUAAGAAAGCCUUAGAGGAGAGAUAUUUAAGUGGAAAGAAUCGAUGGUUCUUUACACCACUUCGUUUUUAAACAAACCUGUCAGACACUACAAAUUCAUGUCGGAAUUGGGAUGAAAUGAUUUUUUCAUAGGUUGGUGAUAAUCGAAUAAAUUUAAAUUAUAUUAAACUAGAUUCACUAAAUUCAAAUAUACCUUGAAAUAUGAUAAAAUCAUCUGUCUGUUUCUU
B3: GS3352 (nucleic acid)
sense: UGUAGAGGUGAAGUAGGUGAAAGUUGAUUUGGCGAUGGUAGAGAUGAGUUACUAUUACUGAUAGAAGGUAAAUUUGAGUAAGAUUGCAAAUUUCUAUCAGACGCAGCUGACUGAUCAAGAGUUUGCUCUAAUAAGGAUCUUUCAUGAGCUGAAUGCGCAUAUGUCGGUGACAAAUUUUUGGGAUGAUCGAUAAAGAAUUUUUUGGUUGAAUAGUUGCGAGAGAUUCCAGGUUGUAUUGCAGGUGAUGAAGAAGCUGGUGAAGAAAUGUUGCUUGAGUUGUCAAAAUUGCUACUGUUUGAACCAUUUGUUUUUGCGGAAGGAUACGGGAGUGGUUUACCUUCUUUUGCCAUCCGAAAAACUGGAAGUAAAUCCUCUCUAAGUCGUGUAUAUUCGAAUGU
antisense: ACAUUCGAAUAUACACGACUUAGAGAGGAUUUACUUCCAGUUUUUCGGAUGGCAAAAGAAGGUAAACCACUCCCGUAUCCUUCCGCAAAAACAAAUGGUUCAAACAGUAGCAAUUUUGACAACUCAAGCAACAUUUCUUCACCAGCUUCUUCAUCACCUGCAAUACAACCUGGAAUCUCUCGCAACUAUUCAACCAAAAAAUUCUUUAUCGAUCAUCCCAAAAAUUUGUCACCGACAUAUGCGCAUUCAGCUCAUGAAAGAUCCUUAUUAGAGCAAACUCUUGAUCAGUCAGCUGCGUCUGAUAGAAAUUUGCAAUCUUACUCAAAUUUACCUUCUAUCAGUAAUAGUAACUCAUCUCUACCAUCGCCAAAUCAACUUUCACCUACUUCACCUCUACA
B4: GS3347 (nucleic acid)
sense: GUGAGUAUCAGGUGUAUAAAUAAAACGUAUAAAAAUGUGAUGUUAUAGAUCGACGGUCAAAGAUUUCUAGAGAUUGAGGUACUGGACAUUCCUUCUUCAACCCCUCAAGAAAUUGUUAAGUCGAAAGAUUAGUAAUUCUCAACUCUGAUUAAAAUAAUCGAUAUGUAUGAAGAUAAGCGAGAUGAAUUGAUAAUGUUGUCUAAAAUUUCGAAUUAUGAAUCUUUACAAAAGAGGGUGAGUUGUCGUAUGAUAAAAGGAGCCUGCUCCGAUCUAGAUAGAACACAGCAGGUAAAGUAGAAGUGAUAUCUGCGAGGAGCCUUGACACCAGCAAGGACUCAGUCCGAAGAGUACGAGUUGCUUUCUGGUUUGUUGAAUGAAAGAAGUAGAAAAAAAUAUAA
antisense: UUAUAUUUUUUUCUACUUCUUUCAUUCAACAAACCAGAAAGCAACUCGUACUCUUCGGACUGAGUCCUUGCUGGUGUCAAGGCUCCUCGCAGAUAUCACUUCUACUUUACCUGCUGUGUUCUAUCUAGAUCGGAGCAGGCUCCUUUUAUCAUACGACAACUCACCCUCUUUUGUAAAGAUUCAUAAUUCGAAAUUUUAGACAACAUUAUCAAUUCAUCUCGCUUAUCUUCAUACAUAUCGAUUAUUUUAAUCAGAGUUGAGAAUUACUAAUCUUUCGACUUAACAAUUUCUUGAGGGGUUGAAGAAGGAAUGUCCAGUACCUCAAUCUCUAGAAAUCUUUGACCGUCGAUCUAUAACAUCACAUUUUUAUACGUUUUAUUUAUACACCUGAUACUCAC
B5: GS3357 (nucleic acid)
sense: GAUCUGGUCGUGGUUUGCCGAAAAGAUUCUUCAUUCCUCCCGUUAUAAGAACGGUGAGUGAUAGUGAAAAGCUUAAUCCAAGCAAUCCAACGUGUAAUUCCCACAUUCUCCGAUGCCAUAUGGCAGAUCUAGGCGUUGACUUUGUAACCGUCGGUCCAGGAACAAGAACUAAGCAAAUAGCAAAAAUAACUAAUGCCGGAAUUAUAAAAGCAUAUAAUCCAAGCCAUCGUACCGAGACUUUUUCAUGUGUUUUAUAGGGAAAGCUGAUAUCUGGGUUCUCCAGCGAGAAGGGUCUUUUGUUUGGUACCCUCGAUCCAACAAAUAAUCCAAAAAAUGCACCAAAUAUAACUACCAGCCAAUCGACAACAUAUGAAAGUACUAGUUUUAAUGA
antisense: UCAUUAAAACUAGUACUUUCAUAUGUUGUCGAUUGGCUGGUAGUUAUAUUUGGUGCAUUUUUUGGAUUAUUUGUUGGAUCGAGGGUACCAAACAAAAGACCCUUCUCGCUGGAGAACCCAGAUAUCAGCUUUCCCUAUAAAACACAUGAAAAAGUCUCGGUACGAUGGCUUGGAUUAUAUGCUUUUAUAAUUCCGGCAUUAGUUAUUUUUGCUAUUUGCUUAGUUCUUGUUCCUGGACCGACGGUUACAAAGUCAACGCCUAGAUCUGCCAUAUGGCAUCGGAGAAUGUGGGAAUUACACGUUGGAUUGCUUGGAUUAAGCUUUUCACUAUCACUCACCGUUCUUAUAACGGGAGGAAUGAAGAAUCUUUUCGGCAAACCACGACCAGAUC

For the first series, the system named is E. necator. Description: Leaf disc assay, dry inoculum (settling tower), decrease in disease severity / hyphal growth (Example 2). To be noted: decrease in disease severity (hyphal growth) relative to untreated control; time point 1 (untreated control hyphal growth ≥50%); value ± SE.
Regarding B1, the “% decrease =/− SE TP1” value worked out at 5 ± 5%.

B2: the “% decrease =/− SE TP1” value is recorded as 4 ± 7%. Still for that read-out and setting: in the case of B3 it was 6 ± 4%; in that of B4, 2 ± 7%.

B5: the “% decrease =/− SE TP1” value stood at 9 ± 6%.

Still in this series, the particulars now being: decrease in disease severity (hyphal growth) relative to untreated control; time point 2; value ± SE.
For B5, the “% decrease =/− SE TP2” value was 7 ± 6%.
